Test results reported in a protein production outcome set (Wang et al. 2014).

Assay: label from the status in PepcDB records

Sequence	protein production
MLTTLSCCCNMPVVKVNCWNNMKVQIKSITQWGGVLLLSFSSCYVNANKLIKPNILFIAVDDLKPLIRDYGTAKVQTPNIDKLASQSTVFTRAYSQYPVCGPSRMSILTGLRPESNGIMNLKDKIRDVNPSVITLPQFFKNNGYETAATGKIFDPRNTTSRSEEEVLSWSIPYQRPKHGLKGKTRLAVESIDEPDEKFVDGGILKRGKKLLKQMANKNKPFFLAVGFKKPHLPFVAPKKYYDLYSRESFDLASYQSAPEDADTTYLFHKNQELRGYKPTPIKGGEIKPYPKGKLSSAHQKELLHGYFASVSFIDSLVGELLEELEKTGQAENTVIVFWGDHGFHLGDHGLWGKHTTMEQANHVPLIIKIPGSKANRYAKPVELLDVFPSLTEAAGLSIPNNLQGTSLVSLVTGKLKSIDKVAISQYKRKGAYGYSMRTEQYRYTQWVTPSGKVVYRDLYDLINDPLETKNIINTPEGKLLEVELNKQLHTNSAGLKRLKLEHHHHHH	failed
KLLAEALELTEDQYVVSFQSQFGRAKWVTPSTQDLFGKLPKQGVTELDVFCPGFLADCLETMEEIALMGREQFYEAGGKSYRYIPCLNDNPDWIDALVALAEENLGSWR	failed
MDTQNLPDQIIPIFMSFDKNYALGASVSLYSLLSHASRHTSMIDFSPLNQSNKLLGANIVYKIHCLVKGVTLEQQNKLLKTIAPFKKFASLEFIHINSLDHSIESYLNKSCSKRYGGLLVLCRLLLASLFPNYSKIISIDADTVFLGDVASAYFALDNDPTKSLGMVRDTFSHLSFEAFCDFCKRACKNFKIDFSRFSPDELKRIHQGFNMGFLVAHLDRWRQDGFEKTALEFLKTRGKDLFYPEQCLVNMVFWERILELPIYYNCYSDFFKEHYPKNIIMLHFIKYKPWRSVSSLNGRLICYEAEASFWLANLFHTPFKNDFFKERLEMAKDQQMQSFKTHIRSQTIRNYLGFRVKNILKKVFKLSLEHHHHHH	not failed
MGEPFGGPLMGRLVSLLPSATDLIFELGLGEQLLGVSHCCDHPGAASLPVLTRSIIGSDLPQAEIDRAVSEAVRAGRALYTVDGPLLDRLRPDLVVTQGVCEVCAVTPGTVAEAVRFLPGCLPAEQVLSLEGKTFAGILADLRALARAAGVRERGEALAAESERRWNAIRPVGVQVPEPPRVLTLEWVDPPFYGGHWVPEQVAQAGGKDVLGHAGRDSGRTSWEDVVQLDPDVIVVMCCGYGLSDNAEFARQVLSHPELRAVRAGQVWGVDANAHFSRPSLGVVRGAEVLAALLRGEESAGESVRVRAELEHHHHHH	not failed
MSATYQLALQQLTDSALPTGAFAHSLGFESYIHRGLVRDESTFSTWLQAFVSQQLSYSDGLALRFLFEGVDVGLLDGVLSAQLLAREVREASLKMGGRLLEIGGEVFPSAELEAYRGLVRAGSASGHQPLAFGVIARSLGVPLEEALSAYLFATVTSLTQNAVRAIPLGQNAGQRVLRQAHDAVAAAIHVVAQLCWDDFGAVSPGLEISQMRHERQRARMFMS	failed
MSELDVEAVDDINAPAGIDAAEYVLYGGKGGVGKTTCAAATALASARDDTATLVVSTDPAHSLSDTLDADIPATPTRIREDIPLYAAEIDPEAAVGEGPLGVEEDALGGVGELLGGDGMFGGGAGGAAGAGQAEDPIGGEEGLLGGSMPGADEAAALRLLLDYVDDDRFDRVVIDTAPTGHTLRLLELPETMDSMVGKILQLRERFSGMMDNLTGMFGDDQDVDAEAGIEDLQELSDRIEHLRGILQDPQRTDFRIVMVPEELSVVESERLLAQLGEFNIPVSTVVVNRVMQDPSEVLGEDVDIAGPNHADCEFCARRWQVQQDALARSQDMFRGHDVRRVPLFAEEVRGERLLSVVAACLD	failed
MAAHDDDMNRGIRPGRGSDDPAGQIAYLEQEIAVLRRKLADSPRHTRILEERIVELQTNLAGVSAQNERLANTLREARDQIVALKEEVDRLAQPPAGFGVFLTANEDGTADIFTGGRKLRVNVSPSVELEELRRGQELMLNEALNVVEAMEYESVGDIVTLKEILEDGERALVVGHTDEERVVRLAEPLLDVTIRPGDALLLEPRSGYVYEVVPKSEVEELVLEEVPDIGYEQIGGLGNQIEMIRDAVELPYLYPDLFKEHELRPPKGVLLYGPPGCGKTLIAKAVANSLAKKVAEVTGQATGKSFFLNIKGPELLNKYVGETERQIRLVFQRAREKASEGTPVIVFFDEMESLFRTRGSGVSSDVENTIVPQLLAEIDGVEGLQNVVVIGASNREDMIDPAILRPGRLDVKIKIERPDAEAAKDIFGKYLTERLPLHTEDVGEHGGDRSATVHGMIQTAVEQMYAESEENRFLEVTYANGDKEVLYFKDFNSGAMIENIVGRAKKMAIKDFLEHSQKGLRVSHLLQACVDEFKENEDLPNTTNPDDWARISGKKGERIVYIRTLITGKQGADTGRSIDTVANTGQYL	failed
MNYASNTFELIAKEWLQMKDWAEITKTRRLDMLERVVFPAIGKLPVREITPHHILKILQETAKRGAPTVAAEARRTISSVFELAVATLRADSDPVWPVRKALPANKTQHLEHHHHHH	not failed
MKDLSSIVAKFNTQGTITEIKPLGAGLINDTYKVNTQEADAPDYVLQRINHAIFQNVEMLQSNIAAVTGHIRKKLTEAGEADIDRKVLSFLATEEGKTYWFDGESYWRVMVFIPRAKTYETVNPEYSNYAGEAFGNFQAMLADIPETLGETIPDFHNMEFRLKQLRDAVAANAAGRVAEVQYYLDEIEKRADEMCKAERLFREGKLPKRVCHCDTKVNNMMFDEDGKVLCVIDLDTVMPSFIFSDYGDFLRTGANTGDEDDKDLNRVNFNMEIFKAFTKGYLKGAKSFLTPIEIENLPYAAALFPYMQCVRFLADYINGDTYYKIKYPEHNLVRTKAQFKLLQSVEEHTPEMVAFINECLVNGLEHHHHHH	failed
MSSVKDTMTTQVATVSPNQTIQEAASLMKQHNVGAIPVVEQGVLKGMLTDRDIALRTTAQGRDGQTPVSEVMSTELVSGNPNMSLEDASQLMAQHQIRRLPIVDQNNLVGIVALGDLAVNQMSNESAGSALTNISHQNIH	failed
MIWLQLVVVLAAIFVGARLGGIGLGVMGGLGLGVLTFVFHLQPTSPPIDVLLMIAAVVTAAGVLQAAGGLDYLVSVAERILRSNPDRITFLGPLVTYVFTLFAGTGHVAYSVLPVISEVARETGVRPERPMSISVIASQQAITASPISAATVALLGMLSTGAAGAAFHIELIDILKVCIPSTLLGVLAAAFVANRMGKDLEEDPEYQDRVARGLAAPTGRQALAAADGGEPVRAAAPVTAKIAVGIFLAAALAVVLFGSFPGMRPQWTTASGVTKLGMPHAIEMVMLSAAALMLMVCRVDVSKVATGSVFGAGVQAVIAIFGIAWMGDTFFAGNMEVLGGSIKGMVTAAPWLFAAALFALSVLLYSQAATVRALMPLGIALGIPAPALMAMFPAVNGYFFIPNYPTIVAAINFDRTGTTRIGRWVLNHSFMVPGLISTVVAIATGLVIVRFMF	failed
MNVKRIKKRMFITFSIIAVLAIALYIFLQTAPFGNPPADARLERIRKSANYKDGVFKNLSNTPVMAEDASYMDMIKQQFSKDSTREPAVCIPSVKRDLSLVPSDRPVITWFGHSTYLIQTEGKNILIDPVFCTSTSPVQFVGNKKYKGTEVYTPADFPAINYLILTHDHYDHLDYQTTLDMQSKVFSYYMPLGVGSHLESWGIDTAKLHELDWWQEIDLEPGYKLVCLPARHFSGRSITDRGKTLWASYLLITPTHKIYIGGDSGYDTHFKQIADKYGAVDIAFLESGQYNAYWPYIHMMPEQTVQAAKDLQAKVLLPVHWGKYTLALHPWDEPIKRLTLEAHKQQVNVATPMIGEPVILDSILPHSTWWVPEGKK	failed
MRTLKVQALWDGEAGVWVAESDDVPGLATEAATLEELLAKLAVMVPELLEENGVALELPVELRLEATRPLVFS	not failed
MKELSDVILDRIDAICDEADLLFEDEKSEEAIAKYNEALTLLPEPIEEYEPSAWLISSIGDVYFFDEEYEKALAQFEHAMGCIDSEDNPYLLLRAGQCHFELGQMQDAEDTMHEAYLIEGEEIFEEEDPKYWEFLKSKITIVDLEHHHHHH	not failed
MEIKRILVSRTDKIGDLVLSIPSFFMLKKMYPNAELVVIVRKYNVDIVKNLPYIDRIVIIDEYSKAELLEKIAYFKADVFIALYNDSYIASLARASKAKIKIGPISKLSSFFTYNKGVLQKRSLSLKNEGQYNLDLVTKLDRKRFAILEHHHHHH	failed
MDRDELVRYLDAYLRIQDFPQDPSLNGLQVEGKRTVRKVGAAVDAGEAIFRKALEEEVDFLIVHHGLFWGKPFPIVGHHKRRLETLFQGGINLYAAHLPLDAHEEVGNNFVLARELGLVDLTPWDVGVKGRFPQPTPLLQVADRLGQLTGMQPLVHQGGLDHVETVILVSGSGTGLLPKVDADLFVTGEPKHSVFHETFERGLNVIYAGHYDTETFGVKALAAHLEARFGLPWVFLDHPTGL	not failed
MDEKPAITKIISGGQTGADRAALDFAIKHHIPYGGWVPKGRLAEGGRVPETYQLQEMPTSDYSKRTEKNVLDSDGTLIISHGILKGGSALTEFFAEQYKKPCLHIDLDRISIEDAATLINSWTVSHHIQVLNIAGPRAGKDPEIYQATMDLLEVFLA	not failed
MNTARANRENGAGNIYIGFGDSQLSLMDSHQARPEPVHTVCSKPPLKRPPSREEHLRQRLVKTIHSQRIISGKNRLSNPPRMANPQANSIIGISTYFGPTN	failed
MVNDVEVTVTYTASDEDATVTYVDDDKGGAQVGDIVTVTGKTDDSTTYTVTIPDGYEYVGTDGGVVSSDGKTVTITFTADDSDNVVIHLKHGLEHHHHHH	not failed
MLKGFNSGDISYEILEKKKENIEQQALERFLEEKSEKENKHIPKEDMLFNSKDSIAMERIVGKNDLFPISYLQIGLNISKSVCRISIRDSRGVVVGYGTGFLVAPNIILTNNHVINSYEVASNSIAEFNYQDDENFMPCPTYNFRLNPQTFFITNVKLDFTLVALNENVTNQKHLEDFGYLKMTQKEGTILPEEYVSIIQHPKGGPKSVTLRENKVSGLKENFIHYLTDTEPGSSGSPVFNDQWTLVALHHSGVPNPEIKDEWIANEGILISAIVNYLAKKYSSLKENEQAIIKEIVPDIELPKENNITSSVDDEPLGYNPLFLGKDYEIPLPKLSKEMEKDTAKTEDGNYVLDYIHFSIVMKKSRGLAYFTAVNIDGTDAVKIRRTADNWKFDPRISQNYQYGDEVYVNNDLDRGHLVRRTDPNWGKNALKANEDTFYFTNSTPQHKNLNQKTWVELEDYIFRNAVLNQFKVSVFTGPVFREDDMIYRQKYQIPAEFWKVVVMLKEDGNISATAYLQTQKNMIENLEFAYGEYKTYQVPVRNIEKLTGLDFGNLSKFDPMANIEATGIVITGPESIKF	failed
MLRPRTIKEGSVGLFALLGLFIIGGIVLWLRGGAFGNPGYEVLVQFDDASGLQVGGAVRYRGVPVGRVAKLIPGSNGILAQLEISSTQLRIPADVQVEISRYGLLGEAAIDMIPDRQLSEAALAIDPLSADCAESDKILCDGDELEGQAGTQLTNSMARLAQAYSEPEFVADINATVKSANLAAARIAAMSAEITALSKTANQQVRGFERTSEAIAKAADNASLLTSRVDQVVQTNQGYINRTIEEASLLMVNLNQLVGENRAQFNLTLKSIETTNRDLQAIGQEIQTAVGTINHGLAAIDTQKVTNDLALLMENAAVTSNNIRQISNDLNDPTLMLTLQQTLDAARLTFENAQKITSDVEQLTGDPAFRNNLRKLVDGLGQLVSSTENLQDRVYTAHTLERSGQQLRFQLDHQQQLALYYEQWGVINPVPASGSPSPQIQTPKIKPPQPKENQGK	failed
MQIGPGSATRLEFRRHFAATPEQLWAALTSPALLPAWLFARGWPMTECVFEPHKGGLIRQVWTGPEGRTRGLTGRVILAEPPHRLIHSELYDEDWTGGETLVTLQLLPVEGGTELAMAVDYATPEARDAVAASAMATEMEEAYRHLDVMLAALEHHHHHH	not failed
MDLTKQFPRSPVDRLGGMDHLKRVIDKARAHVAGTLGEYTYNCPLDQAFFSFFGLDHEKFAEAVKSRPQDQDMLAWVHSQSPRSKNPKEVESFNREYESRSPDSPEKWDYFRSVRDSLAPGRTDITTWVKLLDLEEKRPV	not failed
